According to paper PMC9828337 (Angewandte Chemie (International Ed. in English), 2022):

What was measured:
[1] = molecular target: T1, VenL lyase domain (residues 1–212); experiment: MST
T1 chain: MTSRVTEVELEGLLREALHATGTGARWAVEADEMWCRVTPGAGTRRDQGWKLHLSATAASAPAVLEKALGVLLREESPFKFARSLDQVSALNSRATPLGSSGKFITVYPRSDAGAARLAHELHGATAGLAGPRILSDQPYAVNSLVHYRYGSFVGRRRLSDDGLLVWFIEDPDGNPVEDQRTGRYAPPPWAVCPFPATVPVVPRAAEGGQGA

[2] = molecular target: CurKC lyase domain (residues 1–217) (Thermomonospora curvata DSM43183, fluorophore label in the MST assays (position not given)); experiment: MST

B1: VenL kinase domain (residues 213–513) (domain or fragment)
chain: DGSREARGAGAPVLLGGRFAVREAIRHTNKGGVYRGSDVRTGALVVIKEARPHVEADASGHDVRDWLRTEARTLERLRGTGLAPEPLALFEHGGHLFLAQQEVPGVALRTWVAEHFRDAGAERYRVDARAQVGRLVELVAAAHAHGCVLRDFTPGNVMVRPDGELRLIDLELAVLEGDAARPTRVGTPGFSAPERLTGAPVSPTGDYYSLGATACFVLAGKVPNLLPEEPATRAPEQRLAAWLSACAGPLRLPDGLAEMVLGLMKDAPAERWDPARAREALRRADRDDPVTGKPEDSKGSK
- Kd [1]: 32.3 ± 2.9 µM
- Kd [2]: 24.3 ± 3.5 µM
